# Test results reported in patent publication US20170362276A1 (published 2017).
# Positions of bridges follow the written chain, without caps; N, C: chain ends. Non-standard residues stand in square brackets, D forms with d. No end group written: not given here.
# B1: Compound 1, Tyr-c[D-Lys-Trp-Phe-Glu]-NH2 (peptide)
# peptide: Y[dK]WFE-NH2
# modifications: lactam 2-5; N-terminus assumed
# SMILES: NC(=O)[C@@H]1CCC(=O)NCCCC[C@@H](NC(=O)[C@@H](N)Cc2ccc(O)cc2)C(=O)N[C@@H](Cc2c[nH]c3ccccc23)C(=O)N[C@@H](Cc2ccccc2)C(=O)N1
# B2: Compound 5, Tyr-c[D-Lys-Trp-Phe-Asp]-NH2 (peptide)
# peptide: Y[dK]WFD-NH2
# modifications: lactam 2-5; N-terminus assumed
# SMILES: NC(=O)[C@@H]1CC(=O)NCCCC[C@@H](NC(=O)[C@@H](N)Cc2ccc(O)cc2)C(=O)N[C@@H](Cc2c[nH]c3ccccc23)C(=O)N[C@@H](Cc2ccccc2)C(=O)N1
# B3: Compound 2, Tyr-c[D-Glu-Phe-Phe-Lys]-NH2 (peptide)
# peptide: Y[dE]FFK-NH2
# modifications: lactam 2-5; N-terminus assumed
# SMILES: NC(=O)[C@@H]1CCCCNC(=O)CC[C@@H](NC(=O)[C@@H](N)Cc2ccc(O)cc2)C(=O)N[C@@H](Cc2ccccc2)C(=O)N[C@@H](Cc2ccccc2)C(=O)N1
# How the values were obtained:
# [1] = target: human mu opioid receptor (human) (UniProt P35372); assay: radioligand competition, 3H-DAMGO, membranes of CHO cells expressing cloned human mu receptor
# [2] = target: human kappa opioid receptor (human) (UniProt P41145); assay: ratio of Ki at kappa to Ki at mu, radioligand competition
# [3] = target: human kappa opioid receptor (human) (UniProt P41145); assay: cell-based or functional assay
# [4] = target: human mu opioid receptor (human) (UniProt P35372); assay: cell-based or functional assay
# [5] = target: T1, human delta opioid receptor (human, UniProt P41143 1-372); assay: ratio of Ki at delta to Ki at mu, radioligand competition
# [6] = target: human kappa opioid receptor (human) (UniProt P41145); assay: radioligand competition, 3H-U69593, membranes of CHO cells expressing cloned human kappa receptor
# [7] = target: T1, human delta opioid receptor; assay: radioligand competition, 3H-DPDPE, membranes of CHO cells expressing cloned human delta receptor
# [8] = target: T1, human delta opioid receptor; assay: cell-based or functional assay
Molecule,Ki [1],Selectivity Kappa/Mu [2],Agonist EC50 (35S-GTPγS assay) [3],Selectivity kappa/mu (agonist EC50) [3],Agonist EC50 (35S-GTPγS assay) [4],efficacy of mu activation (35S-GTPγS) [4],Selectivity Delta/Mu [5],Ki [6],Ki [7],Agonist EC50 (35S-GTPγS assay) [8],Selectivity delta/mu (agonist EC50) [8],Delta Antagonist IC 50 [8]
"ck1, Tyr-c[D-Lys-Trp-Phe] (peptide)",0.32 nM,111,470 nM,2240,0.21 nM,> 90%,90,35 nM,28 nM,138 nM,658,–
"ck2, Tyr-c[D-Lys-Phe-Phe] (peptide)",0.36 nM,33,206 nM,1370,0.15 nM,> 90%,9,12 nM,3 nM,7 nM,44,–
B1,–,–,–,–,–,–,–,–,–,–,–,105 nM
B2,–,–,–,–,–,–,–,–,–,–,–,557 nM
B3,–,–,–,–,–,–,–,–,–,–,–,2750 nM
YPFF-NH2 [endomorphin-2 (Tyr-Pro-Phe-Phe-NH2)],–,–,–,–,–,–,–,–,–,–,–,30000 nM
